The chains are these.
B1: BrP1F3 (IgG4-reformatted anti-CD47 antibody) (antibody, V domains shown)
VH: QVQLVQSGAEVKKPGASVKVSCKASGYTFTSYYMHWVRQAPGQGLEWMGIINPSGGSTSYAQKFQGRVTMTRDTSTSTVYMELSSLRSEDTAVYYCARGGTLGMDVWGQGTTVTVSS
VL: SSELTQDPAVSVALGQTVRITCQGDSLRSYYASWYQQKPGQAPVLVIYGKNNRPSGIPDRFSGSSSGNTASLTITGAQAEDEADYYCNSRDSSGNHYVFGTGTKVTVLG
notes: Full-length human IgG4, expressed in HEK293 cells
B2: CwP2F8 (IgG4-reformatted anti-CD47 antibody) (antibody, V domains shown)
VH: QVQLVQSGAEVKKPGSSVKVSCKASGGTFSSYAISWVRQAPGQGLEWMGRIIPILGIANYAQKFQGRVTITADKSTSTAYMELSSLRSEDTAVYYCARSLRWLHRVFDYWGQGTTVTVSS
VL: QSVLTQPASVSGSPGQSITISCTGTSSDVGGYNYVSWYQQHPGKAPKLIIFDVINRPSGVSSRFSGSKSGTSATLVITGLQTGDEADYYCGTWDNSLRAYVFGSGTNVTALG
notes: as for B1
B3: BrP1F11 (IgG4-reformatted anti-CD47 antibody) (antibody, V domains shown)
VH: QVQLVQSGAEVKKPGASVKISCKASGYTFTTYHIHWVRQAPGQGLEWMGVINSNAGNTGYAQNFQDRVTMTRDTSTSTVYMELRSLKSDDTAVYYCAKDPGMGWYMHHWGQGTLVTVSS
VL: NFMLTQPQSVSGSPGETVTISCTGSGGPIASNYVQWYQQRPGSVPTTVIYEDTKRPSGVPDRFSGSIDSSSNSASLTISGLKTEDEADYYCQSYESRNYVFGTGTKVSVLS
notes: Full-length human IgG4, expressed in HEK293 cells; also called BrP1F11-G4
B4: CwP2F12 (IgG4-reformatted anti-CD47 antibody) (antibody, V domains shown)
VH: QVQLVQSGAEVKKPGASVRLSCKASGYTFSSYYMHWVRQAPGQGLVWMGTSIPTAASGSYAQKFQGRVTMTRDTSTTTVYMELSSLRSEDTAVYYCARGGRGGFDYWGQGTPVTVSS
VL: QPGLTQPPSVSKGLRRTATLTCTGNSNNVGNQGAVWLQQHQGHPPKLLSYRNNNRPSGISERFSASRSANTASLTITGLQPEDEADYYCSAWDSSLSGWVFGGGTKLTVLG
notes: as for B1
B5: CwP1C4 (IgG4-reformatted anti-CD47 antibody) (antibody, V domains shown)
VH: QVTLKESGPTLVKPTQTLTLTCTFSGLSLSTSGVGVGWIRQPPGKALEWLALIYWNDDKRYSPSLKSRLTVTKDTSKNQVVLTMTNMDPVDTATYYCAHLITFGGRRAFDIWGQGTMVTVSS
VL: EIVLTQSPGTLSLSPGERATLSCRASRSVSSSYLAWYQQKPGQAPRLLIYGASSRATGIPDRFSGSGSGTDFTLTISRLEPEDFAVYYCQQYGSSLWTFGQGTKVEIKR
notes: as for B1
B6: BrP1F3 Fab (library clone) (Fab, V domains shown)
VH: B1 VH
VL: B1 VL
notes: Fab in bacterial supernatant
B7: CwP2F8 Fab (library clone) (Fab, V domains shown)
VH: B2 VH
VL: B2 VL
notes: Fab in bacterial supernatant
B8: BrP1F11 Fab (library clone) (Fab, V domains shown)
VH: B3 VH
VL: B3 VL
notes: Fab in bacterial supernatant
B9: CwP2F12 Fab (library clone) (Fab, V domains shown)
VH: B4 VH
VL: B4 VL
notes: Fab in bacterial supernatant
B10: CwP1A1 Fab (library clone) (Fab, V domains shown)
VH: B5 VH with V2I, L27F, S32R, V71I
VL: not shown
notes: Fab in bacterial supernatant
B11: CwP1C4 Fab (library clone) (Fab, V domains shown)
VH: B5 VH
VL: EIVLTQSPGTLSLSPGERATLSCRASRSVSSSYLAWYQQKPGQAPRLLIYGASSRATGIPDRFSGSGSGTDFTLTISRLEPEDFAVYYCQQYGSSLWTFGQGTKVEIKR
notes: Fab in bacterial supernatant

Substitutions are numbered along the chain they refer to.

T1 sequence (P78324 31-370 limits assumed): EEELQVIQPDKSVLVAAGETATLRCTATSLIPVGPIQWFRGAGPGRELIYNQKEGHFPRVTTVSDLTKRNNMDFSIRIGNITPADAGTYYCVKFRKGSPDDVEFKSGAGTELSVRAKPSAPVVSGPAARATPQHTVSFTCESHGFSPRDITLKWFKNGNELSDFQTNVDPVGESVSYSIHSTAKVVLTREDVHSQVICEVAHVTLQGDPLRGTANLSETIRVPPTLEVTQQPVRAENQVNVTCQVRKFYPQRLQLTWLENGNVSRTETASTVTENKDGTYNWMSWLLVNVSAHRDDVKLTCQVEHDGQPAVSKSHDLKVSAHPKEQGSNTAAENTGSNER

One assay has as its target T1, recombinant human His-tagged SIRP-α protein (R&D Systems, USA) (human, UniProt P78324 31-370, limits assumed).
T1 construct: Bought from R&D Systems; also called signal-regulatory protein alpha; not shown: His tag
The assay is described as follows: direct ELISA, SIRP-α coated at 1 µg/ml.
In the case of B1, the binding result is given as “no binding (tested: 0.5 µg/ml)”.
For B2, the binding result is “no binding (tested: 0.5 µg/ml)”.
Still for that read-out and setting: in the case of B3 it was “no binding (tested: 0.5 µg/ml)”; in that of B4, “no binding (tested: 0.5 µg/ml)”; in that of B5, “no binding (tested: 0.5 µg/ml)”.

The target of the next assay is T2, recombinant human CD47-Fc protein (R&D Systems, USA) (human, UniProt Q08722 19-139).
T2 construct: Bought from R&D Systems; also called CD47-Fc fusion protein; recombinant CD47; not shown: Fc part of the bought fusion
T2 sequence (Q08722 19-139 limits assumed): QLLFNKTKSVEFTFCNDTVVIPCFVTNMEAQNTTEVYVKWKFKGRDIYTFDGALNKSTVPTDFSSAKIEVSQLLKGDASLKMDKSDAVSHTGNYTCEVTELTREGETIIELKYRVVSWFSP
Kind of assay: blocking ELISA: CD47-Fc (1 µg/ml) binding to coated His-tagged SIRP-α.
As usually defined, the IC50 is the concentration at which inhibition is half-maximal. As to B2, the IC50 stood at 0.068 nM.
The same measure, in the same setting: the figure for B4 is 0.063 nM; for B5 it is 0.155 nM.

Another assay has as its target T2, recombinant human CD47-Fc protein (R&D …). The assay is described as follows: ELISA of Fab supernatant on coated CD47-Fc. On the technique in general: An ELISA detects its analyte on a solid surface through an enzyme-linked reagent.
In the case of B6, the OD450 is above 0.5 OD450.
The same measure, in the same setting: the figure for B7 is above 0.5 OD450.
The same measure, in the same setting: the figure for B8 is above 0.5 OD450; for B9 it is above 0.5 OD450; for B10 it is above 0.5 OD450.
In the case of B11, the OD450 is above 0.5 OD450.

The target is the same in a further assay. The assay is described as follows: titration ELISA on coated CD47-Fc.
A word on the EC50: it is the midpoint of the concentration-response curve. As for B1, the EC50 amounted to 10.1 nM.
On the same count and under the same terms, the figure for B2 is 0.326 nM; for B3 it is 1.21 nM.
Still for that read-out and setting: the figure for B4 is 0.441 nM; for B5 it is 0.227 nM.

The record behind these values is patent US20200010546A1 (TRICAN BIOTECHNOLOGY, published 2020).
